Columns and labels:
[1] = target: head domain of measles virus hemagglutinin, IC-B wild-type strain (measles virus, IC-B strain) (UniProt Q786F2); experiment: SPR
[2] = target: head domain of measles virus hemagglutinin, Edmonston vaccine strain (measles virus, Edmonston strain) (UniProt P08362); experiment: SPR
UniProt P08362, sequence (P08362 149-617): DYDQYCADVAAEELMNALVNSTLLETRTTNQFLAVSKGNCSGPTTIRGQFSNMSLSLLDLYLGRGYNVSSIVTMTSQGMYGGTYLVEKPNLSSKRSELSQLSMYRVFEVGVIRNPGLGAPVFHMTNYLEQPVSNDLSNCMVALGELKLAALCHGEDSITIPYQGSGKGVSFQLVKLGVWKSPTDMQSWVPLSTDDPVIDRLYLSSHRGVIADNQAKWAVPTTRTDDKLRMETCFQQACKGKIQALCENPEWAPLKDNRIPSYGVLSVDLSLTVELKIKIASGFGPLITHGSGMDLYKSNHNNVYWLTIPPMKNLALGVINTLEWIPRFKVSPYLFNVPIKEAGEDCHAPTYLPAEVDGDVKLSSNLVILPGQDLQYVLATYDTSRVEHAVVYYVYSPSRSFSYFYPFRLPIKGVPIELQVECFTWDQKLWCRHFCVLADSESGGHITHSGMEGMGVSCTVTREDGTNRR

UniProt Q786F2, sequence (Q786F2 149-617): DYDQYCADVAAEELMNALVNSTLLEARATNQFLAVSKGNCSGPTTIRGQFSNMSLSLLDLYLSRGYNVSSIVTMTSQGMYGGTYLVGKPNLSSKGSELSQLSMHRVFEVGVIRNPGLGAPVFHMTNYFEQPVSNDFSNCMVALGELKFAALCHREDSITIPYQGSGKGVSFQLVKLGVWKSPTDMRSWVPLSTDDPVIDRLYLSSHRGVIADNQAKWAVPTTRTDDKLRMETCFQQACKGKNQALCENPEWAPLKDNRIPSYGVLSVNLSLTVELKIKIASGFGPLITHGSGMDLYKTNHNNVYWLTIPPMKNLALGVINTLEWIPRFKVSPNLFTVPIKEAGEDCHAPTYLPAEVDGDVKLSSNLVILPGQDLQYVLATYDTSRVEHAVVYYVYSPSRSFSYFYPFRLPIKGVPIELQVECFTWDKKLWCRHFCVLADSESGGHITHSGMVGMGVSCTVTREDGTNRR

soluble human SLAM, chimeric protein of a human V-set with a mouse C2 domain (domain or fragment)
Kd [1]: 448 nM
koff [1]: 0.00637 s⁻¹
kon [1]: 14100 M⁻¹ s⁻¹
Kd [2]: 60.8 nM
koff [2]: 0.00291 s⁻¹
kon [2]: 47900 M⁻¹ s⁻¹
